The text below walks through data of article PMC9723610.

Where two headings read alike, the source gives them in different places.

Data set [1] has as its target T1, hG3BP1 (human, UniProt Q13283 1-466). The experiment in a line: EMSA. (In EMSA bound probe runs differently from free probe, usually more slowly.)
In data set [2] the target is T1, hG3BP1. As to the kind of experiment: EMSA. This is another data set of the same source.

T1 sequence (Q13283 whole entry): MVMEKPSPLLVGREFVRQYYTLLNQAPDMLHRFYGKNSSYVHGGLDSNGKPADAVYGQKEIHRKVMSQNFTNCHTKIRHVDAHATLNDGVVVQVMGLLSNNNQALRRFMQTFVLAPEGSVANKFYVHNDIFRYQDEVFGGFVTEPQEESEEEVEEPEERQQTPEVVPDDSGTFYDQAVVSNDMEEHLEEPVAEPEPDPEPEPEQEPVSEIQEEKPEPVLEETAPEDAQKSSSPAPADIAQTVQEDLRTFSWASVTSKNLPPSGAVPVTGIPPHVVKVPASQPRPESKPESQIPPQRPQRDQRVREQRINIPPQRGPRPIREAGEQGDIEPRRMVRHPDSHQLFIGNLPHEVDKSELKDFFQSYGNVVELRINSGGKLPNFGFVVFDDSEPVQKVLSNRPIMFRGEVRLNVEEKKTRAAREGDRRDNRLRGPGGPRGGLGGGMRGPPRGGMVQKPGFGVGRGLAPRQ

As for AGGGGGCCGUGGGGUGGGAGCUGGGG (structured_RNA) [BCL2 rG4 (rBCL2)], the binding result with hG3BP1 [1] is “binds”. GGGUUAGGGUUAGGGUUAGGG (structured_RNA) [rOG0 rG4]: in the data set with hG3BP1 [1], the binding result is on record as “binds”. Regarding AGGAGGAGGAGGAGG (structured_RNA) [r(AGG)5 rG4], the binding result with hG3BP1 [2] is listed as “binds”. Regarding GUGUGGGAGGGGCGGGUCUGGGUGCG (structured_RNA) [NRAS rG4 (rNRAS)], in the data set with hG3BP1 [1], the binding result is given as “binds”.
